# Source: patent US20140037667A1
# Target: env polypeptide of the LR1-C1 isolate (HIV-1 (variant of clade B primary isolate AC10))
# Experiment: virion capture assay, titration of virions on 4E10-coated plates, p24 ELISA
substance,measurement,value
4E10 antibody,fold increase in affinity against the AC10 wild-type variant,4 fold
